pKd: −log10 of the molar value.
Experiments:
[1] = biological target: HLA-B*18:01; assay: IEDB peptide-MHC binding, purified MHC/direct/fluorescence; filed as Kd, often an IC50 or EC50 that approximates it; ≥ and ≤ were set here for values at or beyond the usual limits of such assays; settings: source organism: Mammarenavirus lassaense
[2] = biological target: HLA-B*40:01; assay: as above; settings: source organism: Mammarenavirus lassaense
[3] = biological target: HLA-B*51:01; assay: IEDB peptide-MHC binding, purified MHC/competitive/radioactivity; filed as Kd, often an IC50 or EC50 that approximates it; ≥ and ≤ were set here for values at or beyond the usual limits of such assays
[4] = biological target: HLA-B*53:01; assay: as above
[5] = biological target: HLA-B*44:03; assay: as above
[6] = biological target: HLA-B*44:02; assay: as above
[7] = biological target: HLA-B*40:01; assay: as above
[8] = biological target: HLA-B*15:01; assay: as above
[9] = biological target: HLA-A*30:01; assay: as above
[10] = biological target: HLA-B*07:02; assay: as above; settings: source organism: Dengue virus 3 Martinique/1243/1999
[11] = biological target: HLA-A*68:01; assay: as above
[12] = biological target: HLA-A*24:03; assay: IEDB peptide-MHC binding, purified MHC/direct/fluorescence; filed as Kd, often an IC50 or EC50 that approximates it; ≥ and ≤ were set here for values at or beyond the usual limits of such assays
[13] = biological target: HLA-A*03:01; assay: IEDB peptide-MHC binding, purified MHC/competitive/radioactivity; filed as Kd, often an IC50 or EC50 that approximates it; ≥ and ≤ were set here for values at or beyond the usual limits of such assays; settings: source organism: Mammarenavirus brazilense
[14] = biological target: HLA-A*31:01; assay: as above; settings: source organism: Mammarenavirus brazilense
[15] = biological target: HLA-A*33:01; assay: as above; settings: source organism: Mammarenavirus brazilense
[16] = biological target: HLA-B*46:01; assay: IEDB peptide-MHC binding, purified MHC/direct/fluorescence; filed as Kd, often an IC50 or EC50 that approximates it; ≥ and ≤ were set here for values at or beyond the usual limits of such assays; settings: source organism: Yellow fever virus
[17] = biological target: HLA-B*51:01; assay: IEDB peptide-MHC binding, purified MHC/competitive/fluorescence; filed as Kd, often an IC50 or EC50 that approximates it; ≥ and ≤ were set here for values at or beyond the usual limits of such assays; settings: source organism: Entamoeba histolytica HM-1:IMSS
[18] = biological target: HLA-A*24:02; assay: IEDB peptide-MHC binding, purified MHC/competitive/radioactivity; filed as Kd, often an IC50 or EC50 that approximates it; ≥ and ≤ were set here for values at or beyond the usual limits of such assays; settings: source organism: Dengue virus 3 Martinique/1243/1999
[19] = biological target: HLA-A*23:01; assay: as above; settings: source organism: Dengue virus 3 Martinique/1243/1999
[20] = source organism: Dengue virus 2 Jamaica/1409/1983
[21] = source organism: Dengue virus 1 Brazil/97-11/1997
[22] = source organism: Vaccinia virus WR
[23] = source organism: Mammarenavirus brazilense
[24] = source organism: Dengue virus 3 Martinique/1243/1999

**Q.** How did the pKd [1] turn out when MEGLKLLSL was run?
**A.** 6.65

**Q.** And the pKd [2]?
**A.** 6.80

**Q.** Which results are given for PPFGDSYII?
**A.** pKd [3, 20]: 5.01; pKd [4, 20]: 5.76

**Q.** KEISSMLNI was tested. Which pKd [5, 21] did it give?
**A.** 7.12

**Q.** What about the pKd [6, 21] of the same sequence?
**A.** 7.41

**Q.** And the pKd [7, 21]?
**A.** 6.58

**Q.** With FIRMLILNF as the sequence, how does the pKd ([8]; source organism: Vaccinia virus Copenhagen) read?
**A.** 5.13

**Q.** With SEIRWEESF as the sequence, how does the pKd [8, 22] read?
**A.** 7.33

**Q.** How did the pKd [9, 21] turn out when TTTDSRCPTQ was run?
**A.** ≤ 4.29

**Q.** RTKDTRIKA was tested. Which pKd [9, 22] did it give?
**A.** 9.71

**Q.** With IPEGRVIDL as the sequence, how does the pKd [10] read?
**A.** 6.85

**Q.** YNNFYFYSF was tested. Which pKd [8, 22] did it give?
**A.** 5.84

**Q.** How did the pKd [8, 22] turn out when GAIDLCRHF was run?
**A.** 6.93

**Q.** With FTMRLLSPVR as the sequence, how does the pKd [11, 20] read?
**A.** 8.11

**Q.** What about the pKd [9, 20] of the same sequence?
**A.** 5.04

**Q.** GYAGTLQSL was tested. Which pKd ([12]; source organism: Mycobacterium tuberculosis variant bovis) did it give?
**A.** 9.05

**Q.** Which results are given for STYYVHENK?
**A.** pKd [13]: 8.29; pKd [14]: 7.24; pKd [11, 23]: 7.89; pKd [15]: 6.34; pKd [9, 23]: 5.48

**Q.** LRHPGFTVI was tested. Which pKd [3, 21] did it give?
**A.** ≤ 5.00

**Q.** What does the source list for SENEVKLTI?
**A.** pKd [5, 20]: 7.85; pKd [6, 20]: 9.09; pKd [7, 20]: 6.43

**Q.** RYPIDPFLL was tested. Which pKd ([12]; source organism: Mammarenavirus lassaense) did it give?
**A.** 8.25

**Q.** How did the pKd [3, 24] turn out when LALFLAHYI was run?
**A.** 6.47

**Q.** RAKRGTAQI was tested. Which pKd [9, 21] did it give?
**A.** 6.86

**Q.** How did the pKd [16] turn out when SQEAEFTGY was run?
**A.** ≤ 4.70

**Q.** CPLNQLEQF was tested. Which pKd [17] did it give?
**A.** ≤ 4.70

**Q.** What does the source list for LEFFLIVLL?
**A.** pKd [5, 20]: 4.75; pKd [7, 20]: 6.91

**Q.** How did the pKd [7, 21] turn out when KEGDQYVYM was run?
**A.** 6.40

**Q.** With YAQMWSLMYF as the sequence, how does the pKd [3, 24] read?
**A.** 4.89

**Q.** And the pKd [8, 24]?
**A.** 8.00

**Q.** What about the pKd [18] of the same sequence?
**A.** 6.61

**Q.** What about the pKd [4, 24] of the same sequence?
**A.** 6.97

**Q.** And the pKd [19]?
**A.** 6.23

**Q.** How did the pKd [8, 22] turn out when ERRYVNVHF was run?
**A.** 5.13

**Q.** How did the pKd [3, 20] turn out when IPYDPKFEK was run?
**A.** 5.66
